Drawing on the supplement of paper PMC10724198, this text covers protein stability index for 67 sequences.

± gives the standard deviation of the averaged measurements.

This data set deals with Saccharomyces cerevisiae. The data set can be described thus: protein stability index of tFT-peptide fusion (C-terminal peptide) (PSI (0-1 scale)); higher = more stable (slower turnover). The conditions noted are these: temperature: 30 C. The procedure:
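MPS profiling in S. cerevisiae of the yeast C-terminome library: the last 12 aa of each annotated ORF are fused to the C-terminus of a sfGFP-mCherry timer, after a GGGS linker. Cells are FACS-sorted into 8 mCherry/sfGFP bins and deep-sequenced. PSI runs from 0 (unstable) to 1 (stable); wild type and das1Δ backgrounds, two technical replicates each.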

Setting [1] is: genetic background: das1 deletion.

Regarding DKLAKLLSLDIH [MSH3 C-terminal 12 aa], the protein stability index runs as follows: under setting [1], 0.7167 ± 0.0065; (genetic background: wild type) 0.708 ± 0.025.
The like results for DKVPVHYPPVVE [SYM1 C-terminal 12 aa] were, in that order, 0.686 ± 0.028 and 0.709 ± 0.045.
In the same order, the values of DLAERLAETEIK [RNA1 C-terminal 12 aa] are 0.703 ± 0.0088 and 0.692 ± 0.024.
In the same order, the values of DLASFIKKSLSS [TML25 C-terminal 12 aa] are 0.694 ± 0.017 and 0.734 ± 0.032.
Turning to DLKIYLQQDESL [YEL023C C-terminal 12 aa], the protein stability index reads like this: under setting [1], 0.709 ± 0.028; (genetic background: wild type) 0.672 ± 0.015.
As to DNPETKNGRENK [ECM10 C-terminal 12 aa], the protein stability index came to 0.675 ± 0.016 under setting [1] and 0.6426 ± 0.00097 (genetic background: wild type).
The like results for DPNGILNPYKYI [DLD2 C-terminal 12 aa] were, in that order, 0.708 ± 0.024 and 0.6117 ± 0.003.
The like results for DQFQLITQGIYS [PIK1 C-terminal 12 aa] were, in that order, 0.722 ± 0.034 and 0.717 ± 0.099.
Take DQLLALYEDGLL [AHC2 C-terminal 12 aa]: the protein stability index by setting is: under setting [1], 0.7371 ± 0.0043; (genetic background: wild type) 0.72 ± 0.043.
The like results for DRVGEVFAKLFG [NNR2 C-terminal 12 aa] were, in that order, 0.7119 ± 0.0012 and 0.728 ± 0.011.
The like results for DSERKVLSEALL [KAP114 C-terminal 12 aa] were, in that order, 0.676 ± 0.013 and 0.6846 ± 0.0027.
The like results for DSFFFDVLAQLP [YLR434C C-terminal 12 aa] were, in that order, 0.7357 ± 0.0072 and 0.686 ± 0.012.
Consider “DTCKSVLYCSTS [YMR193C-A C-terminal 12 aa]”, for which the protein stability index turned out to be 0.694 ± 0.022 under setting [1] and 0.65 ± 0.0067 (genetic background: wild type).
Regarding DTHTNEIIKKEI [HRQ1 C-terminal 12 aa], the protein stability index runs as follows: under setting [1], 0.6984 ± 0.004; (genetic background: wild type) 0.695 ± 0.032.
The like results for DVFEEIGYSMKD [SAE3 C-terminal 12 aa] were, in that order, 0.715 ± 0.0034 and 0.789 ± 0.041.
DVHDDVESDDEI [ALF1 C-terminal 12 aa] displayed a protein stability index under setting [1] of 0.6961 ± 0.0065 and a protein stability index (genetic background: wild type) of 0.7005 ± 0.0059.
In the same order, the values of DVKPQENGNDSS [REG1 C-terminal 12 aa] are 0.71 ± 0.014 and 0.705 ± 0.037.
The like results for DWEAIDAQTIKL [FAT1 C-terminal 12 aa] were, in that order, 0.746 ± 0.0075 and 0.768 ± 0.021.
In the same order, the values of DYKKFIEDVLRQ [MLC1 C-terminal 12 aa] are 0.696 ± 0.033 and 0.702 ± 0.04.
As to EAELEEDWGMYG [YBR062C C-terminal 12 aa], the protein stability index by setting is: under setting [1], 0.7114 ± 0.0068; (genetic background: wild type) 0.7097 ± 0.0017.
The like results for EANNLLNIIKGN [MRP51 C-terminal 12 aa] were, in that order, 0.6795 ± 0.0042 and 0.294 ± 0.035.
Turning to EAQLSRSEVLLV [COS2 C-terminal 12 aa], the protein stability index runs as follows: under setting [1], 0.648 ± 0.0028; (genetic background: wild type) 0.6242 ± 0.0027.
Consider EAQLTRKQAPPV [COS9 C-terminal 12 aa], for which the protein stability index under setting [1] turned out to be 0.7035 ± 0.004 and the protein stability index (genetic background: wild type) turned out to be 0.699 ± 0.015.
The like results for EATYKVLQQLHK [ADE8 C-terminal 12 aa] were, in that order, 0.71 ± 0.012 and 0.7224 ± 0.00099.
As to EAVYELAKMSLA [MYG1 C-terminal 12 aa], the protein stability index was 0.703 ± 0.025 under setting [1] and 0.6777 ± 0.0052 (genetic background: wild type).
In the same order, the values of ECDGITVPEKLT [MSC6 C-terminal 12 aa] are 0.682 ± 0.012 and 0.708 ± 0.011.
The like results for “ECRARKASSNRS [YGR109W-A C-terminal 12 aa]” were, in that order, 0.681 ± 0.0073 and 0.707 ± 0.024.
As to EDAEKRADEMDD [SRM1 C-terminal 12 aa], the protein stability index was determined as 0.691 ± 0.034 under setting [1] and 0.675 ± 0.033 (genetic background: wild type).
As for EECYLHSESFGY [FRE7 C-terminal 12 aa], the protein stability index was determined as 0.68 ± 0.028 under setting [1] and 0.664 ± 0.028 (genetic background: wild type).
The like results for EEFINKLVKSMN [RPL7A C-terminal 12 aa] were, in that order, 0.698 ± 0.029 and 0.705 ± 0.097.
With EEIVGRHSDSAT [YAP6 C-terminal 12 aa], the protein stability index by setting is: under setting [1], 0.6926 ± 0.0035; (genetic background: wild type) 0.69 ± 0.011.
The like results for EEKKKKKIAESK [TIM50 C-terminal 12 aa] were, in that order, 0.681 ± 0.06 and 0.64 ± 0.044.
In the same order, the values of EELKKLSNPDMN [CUP9 C-terminal 12 aa] are 0.713 ± 0.059 and 0.686 ± 0.0076.
Consider EETEAQAEPVEA [RPS3 C-terminal 12 aa], for which the protein stability index stood at 0.687 ± 0.013 under setting [1] and 0.663 ± 0.021 (genetic background: wild type).
In the same order, the values of EFEILDAKKEKD [PIM1 C-terminal 12 aa] are 0.699 ± 0.0047 and 0.681 ± 0.056.
The like results for EFKCMSVITAQQ [SEH1 C-terminal 12 aa] were, in that order, 0.67622 ± 0.00052 and 0.687 ± 0.025.
For EFMKTNTGSKKV [CCR4 C-terminal 12 aa], the protein stability index reads like this: under setting [1], 0.703 ± 0.027; (genetic background: wild type) 0.677 ± 0.03.
In the same order, the values of EFTDEWFKEHSS [STH1 C-terminal 12 aa] are 0.757 ± 0.0035 and 0.719 ± 0.0073.
EGGDLEYQHVKI [YCR043C C-terminal 12 aa]: the protein stability index stood at 0.691 ± 0.0077 under setting [1] and 0.682 ± 0.03 (genetic background: wild type).
The like results for EGIFPANYVRVS [YSC84 C-terminal 12 aa] were, in that order, 0.663 ± 0.01 and 0.673 ± 0.0097.
The like results for “EGPRGETIVERF [YJL047C-A C-terminal 12 aa]” were, in that order, 0.698 ± 0.008 and 0.6955 ± 0.0027.
In the same order, the values of EGVGCRYPVVLI [YDR467C C-terminal 12 aa] are 0.7038 ± 0.0063 and 0.666 ± 0.019.
EHKGSIEAGFTS [CSS2 C-terminal 12 aa]: the protein stability index was determined as 0.698 ± 0.023 under setting [1] and 0.715 ± 0.025 (genetic background: wild type).
The like results for EHRNIEWEKKTA [POL4 C-terminal 12 aa] were, in that order, 0.7 ± 0.014 and 0.694 ± 0.054.
The like results for EINSDFIENFEE [MSH4 C-terminal 12 aa] were, in that order, 0.701 ± 0.017 and 0.699 ± 0.046.
In the same order, the values of EKEFTGNSQSEK [NMA111 C-terminal 12 aa] are 0.6859 ± 0.006 and 0.742 ± 0.039.
Take EKKKNPYWYYQW [GEP3 C-terminal 12 aa]: the protein stability index runs as follows: under setting [1], 0.735 ± 0.009; (genetic background: wild type) 0.673 ± 0.025.
Regarding EKQQRRNMKNAL [RRS1 C-terminal 12 aa], the protein stability index reads like this: under setting [1], 0.704 ± 0.034; (genetic background: wild type) 0.703 ± 0.01.
The like results for EKTRKNISKFFS [CPR7 C-terminal 12 aa] were, in that order, 0.713 ± 0.022 and 0.707 ± 0.013.
As for EKVIDGSIEHSS [YNR061C C-terminal 12 aa], the protein stability index reads like this: under setting [1], 0.6642 ± 0.0044; (genetic background: wild type) 0.703 ± 0.017.
The like results for EKVRNEGFIKNP [GPM2 C-terminal 12 aa] were, in that order, 0.716 ± 0.03 and 0.702 ± 0.075.
ELANILESDITL [CIN1 C-terminal 12 aa]: the protein stability index was 0.70881 ± 0.00043 under setting [1] and 0.712 ± 0.022 (genetic background: wild type).
For ELDEIAASLENL [TPM1 C-terminal 12 aa], the protein stability index was determined as 0.7088 ± 0.0027 under setting [1] and 0.69 ± 0.01 (genetic background: wild type).
In turn, ELLCKGICKAAE [HEL1 C-terminal 12 aa] yielded a protein stability index under setting [1] of 0.6857 ± 0.0035 and a protein stability index (genetic background: wild type) of 0.674 ± 0.017.
On to EMEKNKLKRKRN [YNG2 C-terminal 12 aa], for which the protein stability index runs as follows: under setting [1], 0.668 ± 0.054; (genetic background: wild type) 0.699 ± 0.014.
The like results for EMVKKHALNGRI [NRS1 C-terminal 12 aa] were, in that order, 0.7115 ± 0.004 and 0.671 ± 0.025.
In the same order, the values of ENKNWSIITPSG [YBL086C C-terminal 12 aa] are 0.68945 ± 7e-05 and 0.684 ± 0.018.
In the same order, the values of EPMESLRSTTKY [PTR2 C-terminal 12 aa] are 0.734 ± 0.022 and 0.697 ± 0.01.
Take EPNGYIKNLKWT [RXT3 C-terminal 12 aa]: the protein stability index runs as follows: under setting [1], 0.713 ± 0.023; (genetic background: wild type) 0.633 ± 0.034.
The like results for ERLIQQGYLQKI [PSF1 C-terminal 12 aa] were, in that order, 0.698 ± 0.024 and 0.683 ± 0.035.
The like results for “ERNGWKFFFKEV [YHR137C-A C-terminal 12 aa]” were, in that order, 0.69374 ± 0.00051 and 0.6597 ± 0.0014.
The like results for ERNKKSRPPIYK [ARL3 C-terminal 12 aa] were, in that order, 0.734 ± 0.03 and 0.735 ± 0.09.
Turning to ETLAKLREQGLM [TOM70 C-terminal 12 aa], the protein stability index runs as follows: under setting [1], 0.6797 ± 0.0058; (genetic background: wild type) 0.692 ± 0.015.
In the same order, the values of EVHALNRDHLVA [YHR138C C-terminal 12 aa] are 0.692 ± 0.0076 and 0.674 ± 0.023.
The like results for EVLDQLEPQDSS [MCM6 C-terminal 12 aa] were, in that order, 0.699 ± 0.019 and 0.6847 ± 0.0064.
The like results for EYDDDSGNQGVW [GRE1 C-terminal 12 aa] were, in that order, 0.6914 ± 0.00077 and 0.739 ± 0.049.
Take EYIVNVNEYGHD [YOL153C C-terminal 12 aa]: the protein stability index was determined as 0.6799 ± 0.0043 under setting [1] and 0.678 ± 0.0079 (genetic background: wild type).
